Data: publication PMC3817168

Molecular target: ChrB-His6 (Ochrobactrum tritici 5bvl1)
Assay: cross-linking; 8 µg purified protein, 0.1% glutaraldehyde, 20 mM NaCl, 10 mM KCl, 2 mM DTT, 20 mM Hepes pH 7.5, 30°C, 2 to 60 min; read by 10% SDS-PAGE or anti-His immunoblot; also with chr promoter DNA and/or Cr(VI), without effect

stoichiometry N: 2
Substance: ChrB-His6 (natural protein)
